This is an account of results in publication PMC9807911, “RH5.1-CyRPA-Ripr antigen combination vaccine shows little improvement over RH5.1 in a preclinical setting” (Frontiers in Cellular and Infection Microbiology, 2022).

In this assay the target is CyRPA (D29-E362; S147A, T324A, T340A) (Plasmodium falciparum 3D7, UniProt Q8IFM8 29-362, S147A | T324A | T340A). Briefly: gel electrophoresis. The settings on record: both partners purified.

B1: RH5.1 (E26-Q526; T40A, T216A, T286A, T299A) (natural protein)
chain: ENAIKKTKNQENNLALLPIKSTEEEKDDIKNGKDIKKEIDNDKENIKTNNAKDHSTYIKSYLNTNVNDGLKYLFIPSHNSFIKKYSVFNQINDGMLLNEKNDVKNNEDYKNVDYKNVNFLQYHFKELSNYNIANSIDILQEKEGHLDFVIIPHYTFLDYYKHLSYNSIYHKSSTYGKCIAVDAFIKKINEAYDKVKSKCNDIKNDLIATIKKLEHPYDINNKNDDSYRYDISEEIDDKSEETDDETEEVEDSIQDTDSNHAPSNKKKNDLMNRAFKKMMDEYNTKKKKLIKCIKNHENDFNKICMDMKNYGTNLFEQLSCYNNNFCNTNGIRYHYDEYIHKLILSVKSKNLNKDLSDMTNILQQSELLLTNLNKKMGSYIYIDTIKFIHKEMKHIFNRIEYHTKIINDKTKIIQDKIKLNIWRTFQKDELLKRILDMSNEYSLFITSDHLRQMLYNTFYSKEKHLNNIFHHLIYVLQMKFNDVPIKMEYFQTYKKNKPLTQ
With B1, the binding result is on record as “binds”.
